The record followed here is article PMC9822811.

The experiment has as its target recombinant SARS-CoV-2 RBD of original WT strain (SARS-CoV-2) (UniProt P0DTC2). In words: SPR. (In SPR one partner is held on a chip, and binding of the other changes the refractive index at the surface.)

As to REGN-10933, the Kd was found to be 0.576 nM.

By Kd is commonly meant the equilibrium constant for the complex coming apart.
